Test results taken from PMC4721544.

Biological target: EGFP-EVH2(Mena) (mouse)
Test: cross-linking; lysates of MV^D7 cells stably expressing EGFP-EVH2 (Mena); 100 mM EDC and 10 mM NHS-ester, 1 h, room temperature; 50 mM MES pH 6.0, 500 mM NaCl; SDS/6% PAGE and anti-GFP western blot

## EGFP-EVH2(Mena) (domain or fragment)
  stoichiometry N: 4
